Measurements published in article PMC8506970.

Biological target: His-mATGL288-Str (expression product of pST44-HIS-SMT3-TEV-mATGL288-STR) (mouse) (UniProt Q8BJ56)
Sequence (Q8BJ56 1-288): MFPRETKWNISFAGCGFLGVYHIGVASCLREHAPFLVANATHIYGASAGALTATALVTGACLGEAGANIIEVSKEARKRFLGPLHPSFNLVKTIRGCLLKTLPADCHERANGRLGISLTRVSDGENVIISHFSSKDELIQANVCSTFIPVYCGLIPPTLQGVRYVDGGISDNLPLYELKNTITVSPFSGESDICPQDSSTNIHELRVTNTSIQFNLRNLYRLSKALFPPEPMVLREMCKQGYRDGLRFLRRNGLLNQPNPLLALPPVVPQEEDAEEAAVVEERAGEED

Chain of CGI-58 (expression product of pST44-SMT3-TEV-mCGI58-HIS) (Q9DBL9 whole entry): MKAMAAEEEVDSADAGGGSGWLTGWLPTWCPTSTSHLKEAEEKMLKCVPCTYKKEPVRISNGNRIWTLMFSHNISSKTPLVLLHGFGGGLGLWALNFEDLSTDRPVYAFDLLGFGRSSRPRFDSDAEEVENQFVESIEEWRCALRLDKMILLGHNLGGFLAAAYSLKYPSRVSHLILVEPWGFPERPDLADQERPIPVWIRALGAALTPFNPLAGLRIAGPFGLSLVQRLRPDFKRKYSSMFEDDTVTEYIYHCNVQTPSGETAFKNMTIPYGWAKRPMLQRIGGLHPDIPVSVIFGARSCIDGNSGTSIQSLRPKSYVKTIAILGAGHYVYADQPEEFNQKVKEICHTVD

Substance: CGI-58 (expression product of pST44-SMT3-TEV-mCGI58-HIS) (from UniProt Q9DBL9 1-351) (natural protein)
- TAG hydrolase activity of His-mATGL288-Str coactivated by CGI-58 after storage at 4 °C, against fresh protein: 50 % loss
- TAG hydrolase activity of His-mATGL288-Str coactivated by CGI-58 within 10 days of storage at -80 °C (snap frozen, 10% glycerol), against fresh protein: 50 % loss
- TAG hydrolase activity of freshly purified His-mATGL288-Str, CGI-58-stimulated against basal (equimolar mCGI-58): 10 fold
- TAG hydrolase activity upon CGI-58 coactivation of His-mATGL288-Str frozen in sucrose buffer at -80 °C, alone or as complex with CGI-58, against fresh protein: 40 % loss
